In the series the target is HOXD13 DNA binding domain (D13DBD) (Mus musculus, UniProt P70217). Description: NMR.

Here are results for 1 molecule from PMC4465062.

B1: HOXD13 duplex DNA (dsDNA)
DNA 1: CAACGTTAAAAC
DNA 2: GTTTTAACGTTG
As for B1, the binding result is on record as “binds”.
